The record followed here is patent US11839630B2, “CAR-T cells targeting IL-1RAP and their use” (ETABLISSEMENT FRANCAIS DU SANG, priority 2017, dated 2023).

Bounds are passed on as bounds.

Test [1] deals with HSCs. As to the kind of experiment: IL-1RAP cell surface staining of healthy HSCs. The test is classed as binding, human. How it is done: FIG. 23: Effect of IL-1RAP CAR T cells on healthy hematopoietic cells and efficiency of the safety suicide gene iCASP9 cassette. (A) IL-1RAP cell surface expression on peripheral blood (left) or bone marrow (right) cells from healthy donors (n=5). SSC-A/CD45+ allowed discrimination of subpopulations as lymphocytes (SSC-A low), monocytes (CD33+), granulocytes (SSC-A high), or HSCs (CD33−/CD34+). RFI was calculated from isotype staining and provided in each window. (B) Representative (1 of 3) IL-1RAP staining of whole human cord blood cells. IL-1RAP staining is provided for whole CD34+, CD34+/CD38−, and CD34+/CD38+ HSC cord blood subpopulations. […] Percentages were calculated using absolute cell number determined using Trucount™ tubes based on 5000 fluorescent-bead cytometry acquisition. […] The quantification was performed after acquiring 5000 fluorescent beads. […] Cell killing was calculated as follows: % Dead cells=[1−(absolute number of viable cells in AP1903-treated cells/absolute number of viable cells in untreated cells)]×100. […] (G) Absolute quantification of IL-1RAP CAR T cells injected in a tumor (CML KU812, i.v.) xenograft NSG model 24 h after i.p. AP1903 (white bars) treatment (n=3 mice/group). […]

Test [2] deals with HMEC-1 endothelial cell line. As to the kind of experiment: Staining of HMEC-1 dermal endothelial cell line. The settings on record: flow cytometry staining. The test is classed as binding, human. An excerpt: FIG. 22: (A) Tissue microarray. Representative #A3C3 staining of an US Food and Drug Administration standard frozen tissue array, including 90 tissue cores (30 organs) of 3 individual donors per organ (US Biomax, Rockville, MD, USA). Immunostaining was detected using the UltraView Universal DAB Detection Kit (Ventana, USA). Images were acquired and analyzed with NDP.view 2.0 software. […] (Scale bars, 100 μm.) High IL-1RAP (KU812)— or negative (Raji)-expressing cell lines were respectively used as positive or negative controls. (B) IL-1RAP R&D (red) or #A3C3 (blue) staining of HMEC-1 dermal endothelial cell line. Isotype IgG1 (gray) is depicted as overlay. RFI is provided for both staining.

Test [3] concerns the target T1, IL-1RAP recombinant protein (Homo sapiens, UniProt Q9NPH3).
T1 construct: recombinant fusion protein consisting of the extra cellular part of IL-1RAP (NM_002182.2, NCBI) and the Fc-part of human IgG1; purchased R&D Systems
T1 sequence (Q9NPH3 21-367 limits assumed): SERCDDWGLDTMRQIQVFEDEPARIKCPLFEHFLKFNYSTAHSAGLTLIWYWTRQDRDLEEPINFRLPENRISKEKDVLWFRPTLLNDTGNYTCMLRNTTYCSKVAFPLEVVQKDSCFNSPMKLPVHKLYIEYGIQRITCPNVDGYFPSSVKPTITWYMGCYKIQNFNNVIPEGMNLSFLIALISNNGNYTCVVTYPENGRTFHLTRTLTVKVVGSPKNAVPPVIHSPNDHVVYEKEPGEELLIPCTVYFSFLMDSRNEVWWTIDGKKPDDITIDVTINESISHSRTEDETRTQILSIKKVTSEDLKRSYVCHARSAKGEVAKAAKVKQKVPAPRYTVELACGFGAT
Nature of the test: ELISA against recombinant IL-1RAP protein. In kind it is binding. The settings on record: BSA negative control. The source says: FIG. 2: recognition of IL-1RAP recombinant protein with #E3C3 mAb by the ELISA technique (b). BSA is the negative control (a).
Anti-human Fc antibody was coated on a bottom of a plastic ELISA plate.
In general terms: ELISA stands for enzyme-linked immunosorbent assay.

The test system of test [4] is IL-1RAP+ leukemia expressing stem cells CD34+CD38+ or CD34+CD38-. Nature of the test: Flow cytometry immunophenotyping of primary cells from CML patients. The test is classed as binding, human. The following applies: bone marrow or peripheral blood of patient at diagnosis or after 12 months of Imatinib. The source says: FIG. 3: Immunophenotyping on peripheral blood (PM) or bone marrow (BM) of 2 CML positive patients at diagnosis (Diag) or after Imatinib (IM) treatment. IL-1RAP (#E3C3) was used in combination with CD34+ and CD38− fluorescent staining. Fluorochrome-conjugated isotype control mAbs from the different mAbs were systematically used.
Hematopoietic stem cells from CML patients were tracked using a panel of CD45, CD34, CD38, CD33, CD133, CD117 including murine Alexa Fluor® 488 labelled IL-1RAP antibody clone #E3C3. Transduced cells were stained using a panel of antibodies including CD3, CD4, CD8, and CD19 in order to differentiate helper or cytotoxic GMTC. Naïve, central or memory T cells subsets were analyzed using a panel of CD45RA, CD62L, CD95, CCR7 monoclonal antibodies. Cells were collected using a FACSCANTO™ II cytometer (BD Biosciences, Le Pont de Claix, France) and analyzed using the DIVA 6.1 software (BD Biosciences, Le Pont de Claix, France).
Immunophenotyping on peripheral blood or bone marrow of 2 CML-positive patients without or after Imatinib (TKI) treatment has been performed. IL-1RAP (#E3C3) was used in combination with CD34^+ and CD38^− fluorescent staining. Fluorochrome-conjugated isotype control monoclonal antibodies from the different monoclonal antibodies were systematically used.
A general note: Flow cytometry measures light scatter and fluorescence of single cells or particles in a stream.

B1: #E3C3: mouse anti-hIL-1RAP monoclonal antibody subclone generated by standard hybridoma technique; VH SEQ ID NO: 2, VL SEQ ID NO: 4 (antibody, V domains shown)
VH: MGWSCIILFLVATATGVNSQVQLQQPGAELMMPGASVKVSCEASGYTFTDSWMHWVKQRPGQGLEWIGAIDPSDSYTTYNQKFTGKATLSVDESSNTAYMQLSSLTSEDSAVYYCARYYSGSNYISPFPYWGQGTLVTVSA
VL: MESQIQVFVFVFLWLSGVDGDIVMTQSHKFMSTSVGDRVTITCKASLDVSTAVAWYQQKPGQSPKLLIYSASYRYTGVPDRFTGSGSGTDFTFTISSVQAEDLAVYYCQQHYSPPFTFGSGTNLEIK
modifications: Amino acid sequence of chain H (VH) of murine scFv anti-IL-1RAP; Amino acid sequence of chain K (VL) of murine scFv anti-IL-1RAP
On to B1, for which the “detection of HSCs” value in test [1] (bone marrow from healthy donors or normal cord blood) is recorded as “did not detect”. Moreover, the “RFI of HSC staining” value in test [1] (bone marrow from healthy donors, n=5) is reported as < 1.2. Besides, the “recognition of HMEC-1 cell surface” value in test [2] is “not recognized”. Moreover, in test [3], the “recognition of IL-1RAP recombinant protein by ELISA” value is on record as “recognize the IL-1RAP recombinant protein”. Also, the “discrimination of IL-1RAP+ stem cell subpopulations” value in test [4] is given as “allowed to discriminate IL-1RAP+ leukemia expressing stem cells”.
